This note sets out measurements from patent US20260275311, “CRISPR NUCLEASE POLYPEPTIDES AND GENE EDITING SYSTEMS COMPRISING SUCH” (ARBOR BIOTECHNOLOGIES, INC., published 2026).

Series [1] deals with T1, Nuclease K.
T1 chain: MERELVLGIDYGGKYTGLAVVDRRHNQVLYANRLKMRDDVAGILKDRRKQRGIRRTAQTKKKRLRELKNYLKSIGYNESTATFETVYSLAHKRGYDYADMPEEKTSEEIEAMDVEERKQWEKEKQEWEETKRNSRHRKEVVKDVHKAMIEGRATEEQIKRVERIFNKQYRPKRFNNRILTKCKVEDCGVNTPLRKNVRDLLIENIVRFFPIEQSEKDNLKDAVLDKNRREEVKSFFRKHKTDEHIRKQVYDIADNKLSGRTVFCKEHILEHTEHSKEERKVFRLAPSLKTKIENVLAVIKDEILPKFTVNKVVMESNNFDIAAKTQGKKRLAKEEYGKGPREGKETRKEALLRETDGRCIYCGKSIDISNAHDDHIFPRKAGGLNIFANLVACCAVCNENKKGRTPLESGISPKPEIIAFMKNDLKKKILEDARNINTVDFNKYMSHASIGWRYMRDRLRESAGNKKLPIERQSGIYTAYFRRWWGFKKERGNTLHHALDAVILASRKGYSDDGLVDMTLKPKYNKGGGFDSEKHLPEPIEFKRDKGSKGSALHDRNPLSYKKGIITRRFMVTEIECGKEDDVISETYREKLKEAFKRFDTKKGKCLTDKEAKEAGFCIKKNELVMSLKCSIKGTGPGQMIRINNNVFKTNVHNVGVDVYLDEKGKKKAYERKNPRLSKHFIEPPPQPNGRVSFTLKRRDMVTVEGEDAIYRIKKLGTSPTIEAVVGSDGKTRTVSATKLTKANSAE
The series is described as follows: cell_activity; PAM NGG (AGG); HEK293T; row labelled Reference SEQ ID NO: 1, text says Nuclease K. Particulars: tags: N-terminal SV40 NLS, C-terminal nucleoplasmin NLS.

Series [2] has as its target T1, Nuclease K. The series is described as follows: cell_activity; PAM NGG (GGG); HEK293T. The settings on record: tags: N-terminal SV40 NLS, C-terminal nucleoplasmin NLS.

B1: Nuclease K AAVS1-T3 guide ; AAVS1-T3 target (ssRNA ; dsDNA)
RNA: UUGUGAGAAUGGUGCGUCCUGUUACAGUUAAGGCUCUGAAAAGAGCCUUAAUUGUAAAACGCCUAUACAGUGAAGGGAUAUACGCUUGGGUUUGUCCAGCCUGAGCCUCUAUGCCAGAAAUGGCGCCUUCAUCGUGGGUUAGGACAUUUAAAUUUAAAAACUAUUCAGCACUGUUUGCUCUUGUCAGCUUGGUGGCAGA
DNA 1: TTGTGAGAATGGTGCGTCCT
DNA 2: AGGACGCACCATTCTCACAA
In turn, B1 registered an activity in series [1] of 0.037 indel ratio.

B2: Nuclease K EMX1-T7 guide ; EMX1-T7 target (ssRNA ; dsDNA)
RNA: CUUUAGCAAGGGACUAUUCAGUUACAGUUAAGGCUCUGAAAAGAGCCUUAAUUGUAAAACGCCUAUACAGUGAAGGGAUAUACGCUUGGGUUUGUCCAGCCUGAGCCUCUAUGCCAGAAAUGGCGCCUUCAUCGUGGGUUAGGACAUUUAAAUUUAAAAACUAUUCAGCACUGUUUGCUCUUGUCAGCUUGGUGGCAGA
DNA 1: CTTTAGCAAGGGACTATTCA
DNA 2: TGAATAGTCCCTTGCTAAAG
For B2, in series [2], the activity was found to be 0.011 indel ratio.
